# Source: patent publication US20150344570A1 (published 2015)
# Biological target: T1, FcγRIa (human, UniProt P12314 16-292)
# T1 construct: extracellular domain; also called FcgRI; FcgRIa; not shown: His tag attached to the C terminus
# Test: SPR (Biacore), relative binding; control HeCon Ab GpH7-A5/GpH7-B3/GpL16-k0
# T1 sequence (P12314 16-292): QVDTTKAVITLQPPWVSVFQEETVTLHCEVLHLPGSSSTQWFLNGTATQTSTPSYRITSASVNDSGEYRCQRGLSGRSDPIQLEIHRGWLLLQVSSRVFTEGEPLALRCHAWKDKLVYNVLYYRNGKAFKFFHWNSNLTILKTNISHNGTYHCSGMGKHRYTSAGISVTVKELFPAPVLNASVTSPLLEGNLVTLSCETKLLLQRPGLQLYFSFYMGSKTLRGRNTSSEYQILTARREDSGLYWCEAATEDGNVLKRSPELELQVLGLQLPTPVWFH
row,Binder,He/Con_1a
1,"GpH7-A5/GpH7-B3 variant K326_20W/GpL16-k0 (antibody, human IgG1, kappa, Alteration in one H chain only; also called He Ab K326_20W) heavy 1: not shown heavy 2: not shown light: DIVMTQSPLSLPVTPGEPASISCQASESLVHSNRNTYLHWYLQKPGQSPQLLIYKVSNRFSGVPDRFSGSGSGTDFTLKISRVEAEDVGVYYCSQNTHVPPTFGQGTKVEIERTVAAPSVFIFPPSDEQLKSGTASVVCLLNNFYPREAKVQWKVDNALQSGNSQESVTEQDSKDSTYSLSSTLTLSKADYEKHKVYACEVTHQGLSSPVTKSFNRGEC",103 % of control (=100)
2,"GpH7-A5/GpH7-B3 variant K334_14T/GpL16-k0 (antibody, human IgG1, kappa, Alteration in one H chain only; also called He Ab K334_14T) heavy 1: not shown heavy 2: not shown light: DIVMTQSPLSLPVTPGEPASISCQASESLVHSNRNTYLHWYLQKPGQSPQLLIYKVSNRFSGVPDRFSGSGSGTDFTLKISRVEAEDVGVYYCSQNTHVPPTFGQGTKVEIERTVAAPSVFIFPPSDEQLKSGTASVVCLLNNFYPREAKVQWKVDNALQSGNSQESVTEQDSKDSTYSLSSTLTLSKADYEKHKVYACEVTHQGLSSPVTKSFNRGEC",105 % of control (=100)
3,"GpH7-A5/GpH7-B3 variant K334_09D/GpL16-k0 (antibody, human IgG1, kappa, Alteration in one H chain only; also called He Ab K334_09D) heavy 1: not shown heavy 2: not shown light: DIVMTQSPLSLPVTPGEPASISCQASESLVHSNRNTYLHWYLQKPGQSPQLLIYKVSNRFSGVPDRFSGSGSGTDFTLKISRVEAEDVGVYYCSQNTHVPPTFGQGTKVEIERTVAAPSVFIFPPSDEQLKSGTASVVCLLNNFYPREAKVQWKVDNALQSGNSQESVTEQDSKDSTYSLSSTLTLSKADYEKHKVYACEVTHQGLSSPVTKSFNRGEC",106 % of control (=100)
4,"GpH7-A5/GpH7-B3 variant K334_02A/GpL16-k0 (antibody, human IgG1, kappa, Alteration in one H chain only; also called He Ab K334_02A) heavy 1: not shown heavy 2: not shown light: DIVMTQSPLSLPVTPGEPASISCQASESLVHSNRNTYLHWYLQKPGQSPQLLIYKVSNRFSGVPDRFSGSGSGTDFTLKISRVEAEDVGVYYCSQNTHVPPTFGQGTKVEIERTVAAPSVFIFPPSDEQLKSGTASVVCLLNNFYPREAKVQWKVDNALQSGNSQESVTEQDSKDSTYSLSSTLTLSKADYEKHKVYACEVTHQGLSSPVTKSFNRGEC",106 % of control (=100)
5,"GpH7-A5/GpH7-B3 variant K334_08L/GpL16-k0 (antibody, human IgG1, kappa, Alteration in one H chain only; also called He Ab K334_08L) heavy 1: not shown heavy 2: not shown light: DIVMTQSPLSLPVTPGEPASISCQASESLVHSNRNTYLHWYLQKPGQSPQLLIYKVSNRFSGVPDRFSGSGSGTDFTLKISRVEAEDVGVYYCSQNTHVPPTFGQGTKVEIERTVAAPSVFIFPPSDEQLKSGTASVVCLLNNFYPREAKVQWKVDNALQSGNSQESVTEQDSKDSTYSLSSTLTLSKADYEKHKVYACEVTHQGLSSPVTKSFNRGEC",105 % of control (=100)
6,"GpH7-A5/GpH7-B3 variant K334_04F/GpL16-k0 (antibody, human IgG1, kappa, Alteration in one H chain only; also called He Ab K334_04F) heavy 1: not shown heavy 2: not shown light: DIVMTQSPLSLPVTPGEPASISCQASESLVHSNRNTYLHWYLQKPGQSPQLLIYKVSNRFSGVPDRFSGSGSGTDFTLKISRVEAEDVGVYYCSQNTHVPPTFGQGTKVEIERTVAAPSVFIFPPSDEQLKSGTASVVCLLNNFYPREAKVQWKVDNALQSGNSQESVTEQDSKDSTYSLSSTLTLSKADYEKHKVYACEVTHQGLSSPVTKSFNRGEC",105 % of control (=100)
7,"GpH7-A5/GpH7-B3 variant K334_13S/GpL16-k0 (antibody, human IgG1, kappa, Alteration in one H chain only; also called He Ab K334_13S) heavy 1: not shown heavy 2: not shown light: DIVMTQSPLSLPVTPGEPASISCQASESLVHSNRNTYLHWYLQKPGQSPQLLIYKVSNRFSGVPDRFSGSGSGTDFTLKISRVEAEDVGVYYCSQNTHVPPTFGQGTKVEIERTVAAPSVFIFPPSDEQLKSGTASVVCLLNNFYPREAKVQWKVDNALQSGNSQESVTEQDSKDSTYSLSSTLTLSKADYEKHKVYACEVTHQGLSSPVTKSFNRGEC",105 % of control (=100)
8,"GpH7-A5/GpH7-B3 variant K334_07I/GpL16-k0 (antibody, human IgG1, kappa, Alteration in one H chain only; also called He Ab K334_07I) heavy 1: not shown heavy 2: not shown light: DIVMTQSPLSLPVTPGEPASISCQASESLVHSNRNTYLHWYLQKPGQSPQLLIYKVSNRFSGVPDRFSGSGSGTDFTLKISRVEAEDVGVYYCSQNTHVPPTFGQGTKVEIERTVAAPSVFIFPPSDEQLKSGTASVVCLLNNFYPREAKVQWKVDNALQSGNSQESVTEQDSKDSTYSLSSTLTLSKADYEKHKVYACEVTHQGLSSPVTKSFNRGEC",104 % of control (=100)
9,"GpH7-A5/GpH7-B3 variant K334_03V/GpL16-k0 (antibody, human IgG1, kappa, Alteration in one H chain only; also called He Ab K334_03V) heavy 1: not shown heavy 2: not shown light: DIVMTQSPLSLPVTPGEPASISCQASESLVHSNRNTYLHWYLQKPGQSPQLLIYKVSNRFSGVPDRFSGSGSGTDFTLKISRVEAEDVGVYYCSQNTHVPPTFGQGTKVEIERTVAAPSVFIFPPSDEQLKSGTASVVCLLNNFYPREAKVQWKVDNALQSGNSQESVTEQDSKDSTYSLSSTLTLSKADYEKHKVYACEVTHQGLSSPVTKSFNRGEC",105 % of control (=100)
10,"GpH7-A5/GpH7-B3 variant K334_05P/GpL16-k0 (antibody, human IgG1, kappa, Alteration in one H chain only; also called He Ab K334_05P) heavy 1: not shown heavy 2: not shown light: DIVMTQSPLSLPVTPGEPASISCQASESLVHSNRNTYLHWYLQKPGQSPQLLIYKVSNRFSGVPDRFSGSGSGTDFTLKISRVEAEDVGVYYCSQNTHVPPTFGQGTKVEIERTVAAPSVFIFPPSDEQLKSGTASVVCLLNNFYPREAKVQWKVDNALQSGNSQESVTEQDSKDSTYSLSSTLTLSKADYEKHKVYACEVTHQGLSSPVTKSFNRGEC",104 % of control (=100)

# Results, then the binder that gave them:
row,He/Con_1a,Binder
1,105 % of control (=100),"GpH7-A5/GpH7-B3 variant K334_15Y/GpL16-k0 (antibody, human IgG1, kappa, Alteration in one H chain only; also called He Ab K334_15Y) heavy 1: not shown heavy 2: not shown light: DIVMTQSPLSLPVTPGEPASISCQASESLVHSNRNTYLHWYLQKPGQSPQLLIYKVSNRFSGVPDRFSGSGSGTDFTLKISRVEAEDVGVYYCSQNTHVPPTFGQGTKVEIERTVAAPSVFIFPPSDEQLKSGTASVVCLLNNFYPREAKVQWKVDNALQSGNSQESVTEQDSKDSTYSLSSTLTLSKADYEKHKVYACEVTHQGLSSPVTKSFNRGEC"
2,105 % of control (=100),"GpH7-A5/GpH7-B3 variant K334_18N/GpL16-k0 (antibody, human IgG1, kappa, Alteration in one H chain only; also called He Ab K334_18N) heavy 1: not shown heavy 2: not shown light: DIVMTQSPLSLPVTPGEPASISCQASESLVHSNRNTYLHWYLQKPGQSPQLLIYKVSNRFSGVPDRFSGSGSGTDFTLKISRVEAEDVGVYYCSQNTHVPPTFGQGTKVEIERTVAAPSVFIFPPSDEQLKSGTASVVCLLNNFYPREAKVQWKVDNALQSGNSQESVTEQDSKDSTYSLSSTLTLSKADYEKHKVYACEVTHQGLSSPVTKSFNRGEC"
3,105 % of control (=100),"GpH7-A5/GpH7-B3 variant K334_16H/GpL16-k0 (antibody, human IgG1, kappa, Alteration in one H chain only; also called He Ab K334_16H) heavy 1: not shown heavy 2: not shown light: DIVMTQSPLSLPVTPGEPASISCQASESLVHSNRNTYLHWYLQKPGQSPQLLIYKVSNRFSGVPDRFSGSGSGTDFTLKISRVEAEDVGVYYCSQNTHVPPTFGQGTKVEIERTVAAPSVFIFPPSDEQLKSGTASVVCLLNNFYPREAKVQWKVDNALQSGNSQESVTEQDSKDSTYSLSSTLTLSKADYEKHKVYACEVTHQGLSSPVTKSFNRGEC"
4,106 % of control (=100),"GpH7-A5/GpH7-B3 variant K334_19Q/GpL16-k0 (antibody, human IgG1, kappa, Alteration in one H chain only; also called He Ab K334_19Q) heavy 1: not shown heavy 2: not shown light: DIVMTQSPLSLPVTPGEPASISCQASESLVHSNRNTYLHWYLQKPGQSPQLLIYKVSNRFSGVPDRFSGSGSGTDFTLKISRVEAEDVGVYYCSQNTHVPPTFGQGTKVEIERTVAAPSVFIFPPSDEQLKSGTASVVCLLNNFYPREAKVQWKVDNALQSGNSQESVTEQDSKDSTYSLSSTLTLSKADYEKHKVYACEVTHQGLSSPVTKSFNRGEC"
5,102 % of control (=100),"GpH7-A5/GpH7-B3 variant L328_15Y/GpL16-k0 (antibody, human IgG1, kappa, Alteration in one H chain only; also called He Ab L328_15Y) heavy 1: not shown heavy 2: not shown light: DIVMTQSPLSLPVTPGEPASISCQASESLVHSNRNTYLHWYLQKPGQSPQLLIYKVSNRFSGVPDRFSGSGSGTDFTLKISRVEAEDVGVYYCSQNTHVPPTFGQGTKVEIERTVAAPSVFIFPPSDEQLKSGTASVVCLLNNFYPREAKVQWKVDNALQSGNSQESVTEQDSKDSTYSLSSTLTLSKADYEKHKVYACEVTHQGLSSPVTKSFNRGEC"
6,105 % of control (=100),"GpH7-A5/GpH7-B3 variant P271_01G/GpL16-k0 (antibody, human IgG1, kappa, Alteration in one H chain only; also called He Ab P271_01G) heavy 1: not shown heavy 2: not shown light: DIVMTQSPLSLPVTPGEPASISCQASESLVHSNRNTYLHWYLQKPGQSPQLLIYKVSNRFSGVPDRFSGSGSGTDFTLKISRVEAEDVGVYYCSQNTHVPPTFGQGTKVEIERTVAAPSVFIFPPSDEQLKSGTASVVCLLNNFYPREAKVQWKVDNALQSGNSQESVTEQDSKDSTYSLSSTLTLSKADYEKHKVYACEVTHQGLSSPVTKSFNRGEC"
